Measured values reported in publication PMC11957191, “The PH domain in the ArfGAP ASAP1 drives catalytic activation through an unprecedented allosteric mechanism” (Research Square, 2025).

Experiments:
[1] = molecular target: T1, myristoylated human Arf1 (myrArf1), GTP-bound form at a membrane surface (human, UniProt P84077 1-181, N-myristoylated); experiment: cell-based or functional assay
[2] = molecular target: T1, myristoylated human Arf1 (myrArf1), …; experiment: other fluorescence titration + other: inhibition of GAP activity; PH domain titrated; (i) rate of mant-GTP dissociation from myrArf1 on LUVs with 5 mol% PI(4,5)P2, followed by FRET from Arf tryptophan to mant-GTP, excess GTP 160 μM; (ii) IC50 of PH domain for GAP activity of 1 nM wt PZA on myrArf1·GTP below the Km; both served as proxies for the affinity; settings: both partners purified
[3] = molecular target: T2, ZA domain of ASAP1 (Arf GAP and ankyrin repeat domains), [431–724]ASAP1 (UniProt Q9QWY8 431-724); experiment: NMR intermolecular paramagnetic relaxation enhancement (PRE); Cys159-MTSL myrArf1 with a non-hydrolysable GTP analog on nanodiscs, alone or in complex with wt PH (100 μM), and 100 μM isotopically labeled isolated ZA domain; settings: both partners purified
T2 construct: Isotopically labelled for the PRE experiment; also called ΔPHZA; isolated ZA domain
T2 sequence (looked up): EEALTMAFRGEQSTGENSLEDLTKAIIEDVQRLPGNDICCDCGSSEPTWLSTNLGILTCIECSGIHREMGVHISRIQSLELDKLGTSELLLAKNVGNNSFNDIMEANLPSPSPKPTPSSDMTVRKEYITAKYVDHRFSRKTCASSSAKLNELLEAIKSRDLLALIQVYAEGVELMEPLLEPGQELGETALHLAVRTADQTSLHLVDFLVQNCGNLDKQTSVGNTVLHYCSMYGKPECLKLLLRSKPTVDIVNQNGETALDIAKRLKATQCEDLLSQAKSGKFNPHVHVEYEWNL

T1 sequence (P84077 whole entry, the tested form may be a part): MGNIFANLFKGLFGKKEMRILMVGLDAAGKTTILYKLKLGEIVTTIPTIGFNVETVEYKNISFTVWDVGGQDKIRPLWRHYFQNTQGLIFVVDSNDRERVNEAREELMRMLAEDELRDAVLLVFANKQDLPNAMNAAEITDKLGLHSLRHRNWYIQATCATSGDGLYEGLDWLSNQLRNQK

B1: ΔN14 ASAP1 PH domain, [339–451]ASAP1 (domain or fragment, UniProt Q9QWY8 339-451, looked up)
chain: GSEKKGFLLKKSDGIRKVWQRRKCAVKNGILTISHATSNRQPAKLNLLTCQVKPNAEDKKSFDLISHNRTYHFQAEDEQDYIAWISVLTNSKEEALTMAFRGEQSTGENSLED
notes: ASAP1 residues 339-451: PH domain without residues 325-338 (the first 14 residues of the wt PH construct); also called ΔN14PH; source: E. coli BL21 Star (DE3) (pET3a) or BL21 (DE3) (pET21), purified (HiTrap SP HP, SEC)
**Q.** How did the “'in trans' stimulation of GTP hydrolysis by ZA on myrArf1 (LUVs), relative to wt PH” value [1] turn out when B1 was run?
**A.** 0.01 fold of wt PH

**Q.** And the “affinity relative to wt PH” value [2]?
**A.** ~0.5 fold of wt PH

B2: Cys159-MTSL tagged myrArf1 (natural protein)
chain: not shown
modifications: N-myristoylated; MTSL nitroxide spin label on the native Cys159
notes: also called Arf (in the ZA PRE experiment); source: E. coli, co-expressed with yeast NMT, purified; spin-labelled with MTSL
**Q.** Which Kd [3] does the source give for B2 here?
**A.** 100 to 1000 µM
